Measured values as given in publication PMC7192592 (Nucleic Acids Research, 2020).
Numbering of substitutions follows the chain as printed. Names may count otherwise.

B1: TAMRA- or Cy5-labeled cGAS^FL (1:1 mixture of donor- and acceptor-labeled populations) (enzyme, human, UniProt Q8N884 2-522, looked up)
chain: QPWHGKAMQRASEAGATAPKASARNARGAPMDPTESPAAPEAALPKAGKFGPARKSGSRQKKSAPDTQERPPVRATGARAKKAPQRAQDTQPSDATSAPGAEGLEPPAAREPALSRAGSCRQRGARCSTKPRPPPGPWDVPSPGLPVSAPILVRRDAAPGASKLRAVLEKLKLSRDDISTAAGMVKGVVDHLLLRLKCDSAFRGVGLLNTGSYYEHVKISAPNEFDVMFKLEVPRIQLEEYSNTRAYYFVKFKRNPKENPLSQFLEGEILSASKMLSKFRKIIKEEINDIKDTDVIMKRKRGGSPAVTLLISEKISVDITLALESKSSWPASTQEGLRIQNWLSAKVRKQLRLKPFYLVPKHAKEGNGFQEETWRLSFSHIEKEILNNHGKSKTCCENKEEKCCRKDCLKLMKYLLEQLKERFKDKKHLDKFSSYHVKTAFFHVCTQNPQDSQWDRKDLGLCFDNCVTYFLQCLRTEKLENYFIPEFNLFSSNLIDKRSKEFLTKQIEYERNNEFPVFDEF
modifications: TAMRA or Cy5 label (site not stated)
B2: human full-length cGAS (cGAS^FL), wild-type (enzyme, UniProt Q8N884 2-522, looked up)
chain: B1 chain
B3: K173E/R176E-cGAS^FL (enzyme, human, UniProt Q8N884 2-522, looked up)
chain: B1 chain with K172E, R175E

Experiments:
[1] = molecular target: the molecule itself; assay: FRET or BRET; donor- and acceptor-labeled cGAS^FL with 72-bp dsDNA, with or without Mn^2+ and/or Apcpp/Gpcpp (Supplementary Figure S2A)
[2] = molecular target: the molecule itself; assay: SEC; size-exclusion chromatography of cGAS^FL variants (Supplementary Figure S2B)

Protein	binding result [1]	stoichiometry N [2]
B1	binds	–
B2	–	2
B3	–	2
